{"source": "paper PMC7329128", "experiment_in_all_cases": "flow cytometry on cells", "key": {"[1]": {"molecular_target": "membrane-anchored HCMV trimer (full-length gH, gL-FLAG, gO-8his), strain Merlin, on Expi293F cells, Q6SW67;F5HCH8", "settings": "read at 100 nM soluble PDGFR-Fc (highest concentration); parent: est. 0.98; read off a plot"}, "[2]": {"molecular_target": "membrane-anchored HCMV trimer (full-length gH, gL-FLAG, gO-8his), strain TB40/E, on Expi293F cells", "settings": "fitted curve read at 100 nM soluble PDGFR-Fc (right end of the x axis); parent: est. 1.2; read off a plot"}, "[3]": {"molecular_target": "soluble HCMV glycoprotein trimer gH/gL/gO-sfGFP, strain TB40/E", "settings": "1/3 dilution of medium containing gH/gL/gO-sfGFP, read off a plot"}, "[4]": {"settings": "+ 100 nM PDGF competitor, parent: est. 0.33"}, "[5]": {"settings": "w/o competitor, parent: est. 1.0"}}, "data": [{"substance": "soluble PDGFRα-Fc (wild type, redesigned fusion to human IgG1 Fc) (from UniProt P16234-1) Y206S", "values": [{"measurement": "ratio to parent", "setting": "[1]", "value": 0.45}, {"measurement": "ratio to parent", "setting": "[2]", "value": 0.76}]}, {"substance": "myc-tagged human PDGFRα (wild type) on Expi293F cells (from UniProt P16234-1) L137K", "values": [{"measurement": "ratio to parent", "setting": "[3]; [4]", "value": 0.85}, {"measurement": "ratio to parent", "setting": "[3]; [5]", "value": 0.82}]}, {"substance": "myc-tagged human PDGFRα (wild type) on Expi293F cells (from UniProt P16234-1) L137Q", "values": [{"measurement": "ratio to parent", "setting": "[3]; [4]", "value": 0.71}, {"measurement": "ratio to parent", "setting": "[3]; [5]", "value": 0.9}]}, {"substance": "myc-tagged human PDGFRα (wild type) on Expi293F cells (from UniProt P16234-1) V242K", "values": [{"measurement": "ratio to parent", "setting": "[3]; [4]", "value": 0.94}, {"measurement": "ratio to parent", "setting": "[3]; [5]", "value": 0.9}]}, {"substance": "myc-tagged human PDGFRα (wild type) on Expi293F cells (from UniProt P16234-1) Y206S", "values": [{"measurement": "ratio to parent", "setting": "[3]; [4]", "value": 0.82}, {"measurement": "ratio to parent", "setting": "[3]; [5]", "value": 0.85}]}, {"substance": "soluble PDGFRα-Fc (wild type, redesigned fusion to human IgG1 Fc) (from UniProt P16234-1) V242K", "values": [{"measurement": "ratio to parent", "setting": "[1]", "value": 1}, {"measurement": "ratio to parent", "setting": "[2]", "value": 1.1}]}, {"substance": "myc-tagged human PDGFRα (wild type) on Expi293F cells (from UniProt P16234-1) V242T", "values": [{"measurement": "ratio to parent", "setting": "[3]; [4]", "value": 0.84}, {"measurement": "ratio to parent", "setting": "[3]; [5]", "value": 0.83}]}]}
